Test results as given in the supplement of paper PMC11865577.

Test system: TO-N3-2 (biotin conjugate)
Assay: pull-down binding Z-score (relative to library population); higher = stronger binding
Settings: RNA library: Library-2
Procedure, shortened: (§1)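 A heat-folded, dye-end-labelled (Cy5 or Cy3) RNA library (1 μg, phosphate/NaCl/KCl buffer) was exposed for 60 min at 25 °C to streptavidin beads holding 100 pmol of biotin-conjugated small molecule. RNA retained on the beads was eluted in hot SDS and hybridised to a DNA barcode microarray for 20 h at 55.5 °C. Binding scores were Z-scores against the library mean and standard deviation, calculated after subtracting beads alone and taking trimmed means of replicate probes.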

Sequence | pull-down binding Z-score
UCCUGUAGUGUCUUAUAUACAAUACAGUAGGA [hsa-mir-613] | -0.539
UCCUUUUCUCUACCUUGUAGAGAAGCA [hsa-mir-3609] | -0.258
UCGAGAGGUCAGAGGAUUGCUCCUGA [hsa-mir-5585] | 1.67
UCGCCUAGGGCUCUGAGCAGGGCA [hsa-mir-211] | 1.47
UCGGCACUAUUGUGACUGU [hsa-mir-7855] | 0.0889
UCGUCAGUGUUUGA [hsa-mir-8073] | -0.296
UCUAUCUGUAUUCUUACUGAAGGGA [hsa-mir-504] | -0.728
UCUCAAAAUAAUUCUGCAGUGAGA [hsa-mir-4524b] | -0.868
UCUCAAUCCAUUCAUAUUGAAA [hsa-mir-3662] | -0.68
UCUGCAGGUUCGCACUGAUGCCUGCUCG [hsa-mir-6726] | 0.569
UCUGCUUUAUUUCAUCAAAGCAGA [hsa-mir-4773-1] | -1.41
UCUGCUUUGAUGAAAUAAAGCAGA [hsa-mir-4773-2] | -1.05
UCUGGGGAGAGAGUCCUCUUUUCAGC [hsa-mir-8082] | 0.614
UCUGUUGCUUGAAAGAAGAGA [hsa-mir-526a-1] | 0.215
UCUGUUGUCUGAAAGAAAACA [hsa-mir-518b_518c] | 0.0545
UCUGUUUGUUUUCUCUUAAACA [hsa-mir-519d] | -0.847
UCUGUUUUAAGUAACAGA [hsa-mir-7705] | -1.85
UCUUAGACUAUUACAAGA [hsa-mir-3672] | -0.526
UCUUAGCACGGGGUCUAAGG [hsa-mir-4747] | -0.257

Test system: TO-N3 (biotin conjugate)
Assay: as above
Settings: RNA library: Library-2
Procedure, shortened: as §1

Sequence | pull-down binding Z-score
UAUUUCAAAAGACUAGAGGUAGGAAAUGAG [hsa-mir-3975] | -0.42
UAUUUUGUUAUUCUGGUCACAGAAUGACCUAGUA [hsa-mir-630] | -0.308
UCAAACAAGUUUCCAAAUUGUUUGA [hsa-mir-488] | 0.194
UCACAAUUGCGCUACAGAACUGUUGA [hsa-mir-203b] | 1.12
UCACAGGGCUCAGGGAAUGUGUCUGCACCUGUGA [hsa-mir-587] | 0.469
UCACAGUUGGUUUCUGACACGUGG [hsa-mir-4535] | 0.305
UCACUGCUGCUGGCGCCCUGA [hsa-mir-943] | 0.432
UCACUGUGAACAGUCUCAGUCAGUGA [hsa-mir-183] | -0.919
UCAGACACAUCAGAUCCCUUAUCUGUAAAAUGGGCAUGA [hsa-mir-640] | 0.00353
UCAGAUAUUUAAGUUAACAGUAUUUGA [hsa-mir-580] | -1.1
UCAGCACCUGAACGCCAAGGCUGG [hsa-mir-3150a] | -0.348
UCAGCCCCAUAUGUAUCUGAAGGCUGA [hsa-mir-5694] | -0.337
UCAGCUGUAAUACAUGGAUUGGCUGG [hsa-mir-30b] | -0.379
UCAGCUGUGAGCUCAAGGUGGCUGG [hsa-mir-30c-1] | 0.804
UCAGCUGUGGAAAGUAAGAAAGCUGG [hsa-mir-30c-2] | 1.28
UCAGGAUCUACUCAUGUCGUCUUUGG [hsa-mir-573] | -0.165
UCAGGCUUUAAUGUUUGAAGUAAUGUCAGU [hsa-mir-6874] | 0.555
UCAGGGAGAAAGUGCAUACAGCCCCUG [hsa-mir-328] | -0.112
UCAGGUGAAUGUGUCUGG [hsa-mir-3916] | -0.773
UCAGUUUUGUAGCAUCAAAACU [hsa-mir-4521] | -0.342
UCAUAAAGAUGAUC [hsa-mir-8067] | 0.381
UCAUAAAUAUUUUAAGGAAUGACCCGGCCCUGGGG [hsa-mir-4285] | -0.199
UCAUUUAUGUGAACUAAAAUAUAAAUUU [hsa-mir-513a-2_513a-1] | -1.25
UCCAACCUGAAAUCCUUCUGUAGGUUGAG [hsa-mir-5702] | -0.245
UCCACAAGGAGGGGAUGACCCUUGUGGG [hsa-mir-4437] | 3.14

Sequence | pull-down binding Z-score
UCCACACUGACAAGGGCCGUGGGG [hsa-mir-3191] | 1.19
UCCACCCCCAGAGAAUCCCUAAACCGGGGGUGGA [hsa-mir-1289-1] | -0.645
UCCACCCUGGUCCAGGUCCACAGCAGUGGA [hsa-mir-4644] | 0.441
UCCACCUAGACGGGCCUGGGUCAA [hsa-mir-4698] | 0.552
UCCAGACGGAGAUGCGA [hsa-mir-611] | 0.192
UCCAGAGGCAUCCCUAACCCAGAAUCUUUUGACUGUCCUCUGGA [hsa-mir-4306] | -0.253
UCCAGCUGUGUGAUAUUCUGCUG [hsa-mir-19b-1] | 0.909
UCCAGGAUCUGGGUUUUGAGGUCUUGG [hsa-mir-4309] | 0.673
UCCAGGCAUCUGUGUCUG [hsa-mir-4669] | 1.52
UCCAGGGCUCCUGACACCUGGA [hsa-mir-6861] | -0.785
UCCAGUGUGGCUCGGAGGCUGGA [hsa-mir-139] | 1.23
UCCAUGAAAAGAACCCAUGGG [hsa-mir-4471] | -0.608
UCCCAGCCACUCUGGAGG [hsa-mir-4419b] | 0.44
UCCCAGGAAAUUCACUUUAGGAAGUCCUAGGA [hsa-mir-5571] | -1.1
UCCCAGGCCCUUCCUCCAAUACUGGGA [hsa-mir-4666b] | -0.383
UCCCAUUUCCACAUGGAGAGUGGAGCCCAGA [hsa-mir-3123] | 0.639
UCCCCAGAAGCUGAGGAUUAGGGGA [hsa-mir-6503] | -0.0188
UCCCCUAGCGCGCCUUCUGGAGA [hsa-mir-3188] | -0.0603
UCCCCUCAGGA [hsa-mir-5703] | -0.256
UCCCUUCCUGGACACACAGGAGGAGA [hsa-mir-5680] | -0.874
UCCGGCCGGCCAUGCUGGCGGGG [hsa-mir-762] | -0.676
UCCUAGGCGGGUCGCUGCGGUACCUCCCUCCUGUCUGUGGCGGUGGGAUCCCGUGGCCGUGUUUUCCUGGUG [hsa-mir-663b] | 0.683
UCCUCAGACCAGGUGGCUCCCGAGCCACCCCAGGCUGUAGG [hsa-mir-2392] | 0.743
UCCUCCACAAAUGCGUGUGGAGGA [hsa-mir-4633] | -1.34
UCCUCCAUGCUUGGAAAAUGCAGGGAGGA [hsa-mir-764] | -0.987

Sequence | pull-down binding Z-score
UCCUCUCCUGGUCUGGGAGGAUAGAAGAGAGGA [hsa-mir-5191] | 0.823
UCCUGAGACAGGA [hsa-mir-4261] | -0.807
UCCUGAGCUAGGAGGAUUAGGA [hsa-mir-5093] | -0.07
UCCUGAUCUGAUGGAAGUCAUGA [hsa-mir-7843] | -0.0481
UCCUGAUGGUCCCCUCCCCAGGG [hsa-mir-185] | 0.275
UCCUGGGAAGCAUGGUAGCCAGGA [hsa-mir-5192] | 0.319
UCCUGUAGUGUCUUAUAUACAAUACAGUAGGA [hsa-mir-613] | -0.743
UCCUUUUCUCUACCUUGUAGAGAAGCA [hsa-mir-3609] | 0.281
UCGAGAGGUCAGAGGAUUGCUCCUGA [hsa-mir-5585] | 0.496
UCGCCUAGGGCUCUGAGCAGGGCA [hsa-mir-211] | 1.72
UCGGCACUAUUGUGACUGU [hsa-mir-7855] | 0.611
UCGUCAGUGUUUGA [hsa-mir-8073] | -0.468
UCUAUCUGUAUUCUUACUGAAGGGA [hsa-mir-504] | -0.937
UCUCAAAAUAAUUCUGCAGUGAGA [hsa-mir-4524b] | -1.13
UCUCAAUCCAUUCAUAUUGAAA [hsa-mir-3662] | 0.226
UCUGCAGGUUCGCACUGAUGCCUGCUCG [hsa-mir-6726] | 0.309
UCUGCUUUAUUUCAUCAAAGCAGA [hsa-mir-4773-1] | -1.36
UCUGCUUUGAUGAAAUAAAGCAGA [hsa-mir-4773-2] | -0.206
UCUGGGGAGAGAGUCCUCUUUUCAGC [hsa-mir-8082] | 0.571
UCUGUUGCUUGAAAGAAGAGA [hsa-mir-526a-1] | 0.922
UCUGUUGUCUGAAAGAAAACA [hsa-mir-518b_518c] | -0.285
UCUGUUUGUUUUCUCUUAAACA [hsa-mir-519d] | -0.828
UCUGUUUUAAGUAACAGA [hsa-mir-7705] | -1.32
UCUUAGACUAUUACAAGA [hsa-mir-3672] | 0.614
UCUUAGCACGGGGUCUAAGG [hsa-mir-4747] | -0.33
